Laboratory results reported in US10472401B2, “Peptides and combination of peptides for use in immunotherapy against ovarian cancer and other cancers” (immatics biotechnologies GmbH, priority 2015, dated 2019).

Target: HLA-A*02:01 (Homo sapiens, UniProt P04439, D140Y/D185E/D98H/E176V/E277Q/G131W/G231S/I119V/I121R/I166T/I218V/L300P/L318F/N151K/N90K/P208A/P217A/Q86G/Q94H/R138H/R169H/T345S)
Test: MHC binding assay (UV-ligand exchange, ELISA of stabilized MHC complexes)
Conditions: MHC class I binding score; binding to HLA-A*02:01 ranged by peptide exchange yield (UV-ligand exchange, ELISA)
From the text: Candidate peptides for T cell based therapies according to the present invention were further tested for their MHC binding capacity (affinity). The individual peptide-MHC complexes were produced by UV-ligand exchange, where a UV-sensitive peptide is cleaved upon UV-irradiation, and exchanged with the peptide of interest as analyzed. Only peptide candidates that can effectively bind and stabilize the peptide-receptive MHC molecules prevent dissociation of the MHC complexes. To determine the yield of the exchange reaction, an ELISA was performed based on the detection of the light chain (β2m) of stabilized MHC complexes. The assay was performed as generally described in Rodenko et al. (Rodenko et al., 2006).
96 well MAXISorp plates (NUNC) were coated over night with 2 ug/ml streptavidin in PBS at room temperature, washed 4× and blocked for 1h at 37° C. in 2% BSA containing blocking buffer. […] Peptide-MHC monomers of the UV-exchange reaction were diluted 100 fold in blocking buffer. Samples were incubated for 1h at 37° C., washed four times, incubated with 2 ug/ml HRP conjugated anti-82m for 1h at 37° C., washed again and detected with TMB solution that is stopped with […]. Absorption was measured at 450 nm. Candidate peptides that show a high exchange yield (preferably higher than 50%, most preferred higher than 75%) are generally preferred for a generation and production of antibodies or fragments thereof, and/or T cell receptors or fragments thereof, as they show sufficient avidity to the MHC molecules and prevent dissociation of the MHC complexes.

Peptide exchange	Substance
″+++″ (≥50% = +++)	167 (KVLEVTEEFGV; listed as Homo sapiens) [compound 167]
″+++″ (≥50% = +++)	173 (LLDSASAGLYL; listed as Homo sapiens) [compound 173]
″+++″ (≥50% = +++)	175 (YLFENISQL; listed as Homo sapiens) [compound 175]
″++″ (≥20% = ++)	180 (FQIDPHSGLVTV; listed as Homo sapiens) [compound 180]
″+++″ (≥50% = +++)	184 (YLMDINGKMWL; listed as Homo sapiens) [compound 184]
″++″ (≥20% = ++)	185 (FLIDDKGYTL; listed as Homo sapiens) [compound 185]
″+++″ (≥50% = +++)	187 (RQISIRGIVGV; listed as Homo sapiens) [compound 187]
″+++″ (≥50% = +++)	188 (GLFPVTPEAV; listed as Homo sapiens) [compound 188]
″+++″ (≥50% = +++)	189 (ALQRKLPYV; listed as Homo sapiens) [compound 189]
″++″ (≥20% = ++)	191 (LLQEGQALEYV; listed as Homo sapiens) [compound 191]
″++++″ (≥75% = ++++)	196 (YLYSVEIKL; listed as Homo sapiens) [compound 196]
″++″ (≥20% = ++)	197 (ALGPEGGRV; listed as Homo sapiens) [compound 197]
″+++″ (≥50% = +++)	198 (KTINKVPTV; listed as Homo sapiens) [compound 198]

The remaining lines, values behind:

Substance	Peptide exchange
168 (KILDADIQL; listed as Homo sapiens) [compound 168]	″++++″ (≥75% = ++++)
169 (NLPEYLPFV; listed as Homo sapiens) [compound 169]	″+++″ (≥50% = +++)
170 (RLQETLSAA; listed as Homo sapiens) [compound 170]	″+++″ (≥50% = +++)
171 (LLLPLQILL; listed as Homo sapiens) [compound 171]	″+++″ (≥50% = +++)
172 (VLYSYTIITV; listed as Homo sapiens) [compound 172]	″++″ (≥20% = ++)
174 (ALAQYLITA; listed as Homo sapiens) [compound 174]	″+++″ (≥50% = +++)
176 (YLMEGSYNKVFL; listed as Homo sapiens) [compound 176]	″++″ (≥20% = ++)
177 (YLLPEEYTSTL; listed as Homo sapiens) [compound 177]	″++++″ (≥75% = ++++)
178 (ALTEIAFVV; listed as Homo sapiens) [compound 178]	″++++″ (≥75% = ++++)
179 (KVLNELYTV; listed as Homo sapiens) [compound 179]	″+++″ (≥50% = +++)
181 (LLWAGTAFQV; listed as Homo sapiens) [compound 181]	″+++″ (≥50% = +++)
182 (MLLEAPGIFL; listed as Homo sapiens) [compound 182]	″+++″ (≥50% = +++)
183 (FGLDLVTEL; listed as Homo sapiens) [compound 183]	″+++″ (≥50% = +++)
186 (TLFFQQNAL; listed as Homo sapiens) [compound 186]	″++″ (≥20% = ++)
190 (FLSSLTETI; listed as Homo sapiens) [compound 190]	″+++″ (≥50% = +++)
192 (KMLDGASFTL; listed as Homo sapiens) [compound 192]	″+++″ (≥50% = +++)
193 (QLLDADGFLNV; listed as Homo sapiens) [compound 193]	″+++″ (≥50% = +++)
194 (ALPLFVITV; listed as Homo sapiens) [compound 194]	″+++″ (≥50% = +++)
195 (GLFADLLPRL; listed as Homo sapiens) [compound 195]	″+++″ (≥50% = +++)
